What was measured:
[1] = biological target: T1, Recombinant human IL-13 (R&D Systems, MN, catalog no. 213-ILB/CF) (human, UniProt P35225 33-146); assay: sandwich pair screen, 100 pg/mL recombinant IL-13 against blank, binder is detection Ab 11H4; capture Ab MILR1444A
T1 construct: also called recombinant IL-13

[2] = biological target: T1, Recombinant human IL-13 (R&D Systems, …); assay: sandwich pair screen, 100 pg/mL recombinant IL-13 against blank, binder is detection Ab 11H4; capture Ab 228B/C
[3] = biological target: T2, native IL-13 in human serum (human, UniProt P35225 33-146); assay: pre-incubation of serum with excess (100 ug/mL) capture antibody for 1 h at room temperature, then IMPACT IL-13 sandwich assay
T2 construct: Endogenous IL-13 in serum of healthy volunteers and of patients with asthma, IPF or atopic dermatitis; also called serum IL-13; endogenous IL-13
T2 sequence (P35225 other isoform, or with tags, fused parts or gaps): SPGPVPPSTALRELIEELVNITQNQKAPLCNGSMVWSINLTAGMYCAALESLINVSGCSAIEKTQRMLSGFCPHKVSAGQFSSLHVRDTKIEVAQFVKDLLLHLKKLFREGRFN

T1 sequence (P35225 other isoform, or with tags, fused parts or gaps): as above

Binder	positive/negative ratio [1]	positive/negative ratio [2]	binding result [3]
11H4 (anti-IL-13 mu11H4) (antibody, IgG1, V domains shown, Murine antibody; In the IMPACT IL-13 assay it was used as full-length IgG1 labelled with digoxigenin) VH: QVTLKESGPGILQPSQTLSLTCSFSGFSLSTSDMGVGWIRQPSGKGLEWLAHIWWDDVKRYNPALKSRLTISKDTSSSQVFLKIASVDTADTATYYCARIGTNYGYDGLFDYWGQGTTLTVSS VL: DIVLTQSPASLAVSLGQRATISCRASQSVSTSSYSYMNWYQQTPGQPPKLLIKYASNLESGIPARFSGSGSGTDFTLNIHPVEEEDTATYYCQHSWEIPYTFGGGT	22800	317	–
biotinylated lebrikizumab F(ab')2 (other, biotinylated (sites not given), F(ab')2 fragment of lebrikizumab, the capture reagent of the IMPACT IL-13 assay; also called capture antibody; first antibody) VH: VTLRESGPALVKPTQTLTLTCTVSGFSLSAYSVNWIRQPPGKALEWLAMIWGDGKIVYNSALKSRLTISKDTSKNQVVLTMTNMDPVDTATYYCAGDGYYPYAMDNWGQGSLVTVSS VL: DIVMTQSPDSLSVSLGERATINCRASKSVDSYGNSFMHWYQQKPGQPPKLLIYLASNLESGVPDRFSGSGSGTDFTLTISSLQAEDVAVYYCQQNNEDPRTFGGGTKVEIK	–	–	binds

— US20180356429A1 (Genentech, published 2018)
